# T1: human Bak (Homo sapiens, UniProt Q16611)
# T1 construct: expressed in transfected cells; host or cells: HEK293
# T1 sequence (Q16611 1-211): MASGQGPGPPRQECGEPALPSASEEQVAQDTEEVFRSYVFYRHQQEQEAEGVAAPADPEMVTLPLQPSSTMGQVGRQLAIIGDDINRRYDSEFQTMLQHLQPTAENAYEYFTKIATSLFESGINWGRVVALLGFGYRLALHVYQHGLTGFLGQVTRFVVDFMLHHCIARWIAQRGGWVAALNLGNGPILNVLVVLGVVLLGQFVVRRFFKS
# How the values were obtained:
# [1] = target: T2, Mouse Bax (Mus musculus, UniProt Q07813); test: Yeast-based functional screening for Bax inhibitors; assay type: cell-based; conditions: yeast strain EGY48, galactose-inducible mouse Bax
# T2 construct: expressed in transfected cells; host or cells: yeast strain EGY48, pGilda vector
# T2 sequence (Q07813 whole entry): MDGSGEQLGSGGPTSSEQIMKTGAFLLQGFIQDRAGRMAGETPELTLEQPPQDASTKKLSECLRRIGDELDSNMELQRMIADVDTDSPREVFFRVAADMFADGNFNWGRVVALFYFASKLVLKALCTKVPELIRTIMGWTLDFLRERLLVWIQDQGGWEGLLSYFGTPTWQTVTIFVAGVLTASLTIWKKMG
# Description: The yeast strain EGY48 was used for the yeast functional screening for Bax inhibitors. Mouse Bax was expressed under a galactose-inducible promoter using pGilda vector as reported. Yeast expression libraries of cDNAs of mouse brain and a human cell line (HeLa) were prepared in pYES2 and pJG4-5 vectors, respectively.
# To perform a yeast-based functional screen for Bax inhibitors, yeast expression cDNA libraries were generated from purified mRNAs of human HeLa cells and mouse brain tissue using pJG4-5 and pYES2 vectors, respectively. […] IFNγR2263-337 contains a Jak2-binding domain (amino acids 284-295). To determine the role of the Jak2-binding domain in Bax inhibition, two IFNγR2 mutants were generated (FIG. 1B) and tested for their anti-Bax activity in human cells as described below.
# [2] = target: T3, human Bax ΔTM (Homo sapiens, UniProt Q07812); test: Binding of recombinant proteins (pull-down on anti-Bax beads); conditions: purified recombinant proteins, IFNγR2263-337 tagged with thioredoxin (rTrx)
# T3 construct: Bax C terminal transmembrane truncated human Bax; His tag (on MBP) (N, cleaved yes); made in house
# T3 sequence (Q07812 1-171 limits assumed, stated change not applied): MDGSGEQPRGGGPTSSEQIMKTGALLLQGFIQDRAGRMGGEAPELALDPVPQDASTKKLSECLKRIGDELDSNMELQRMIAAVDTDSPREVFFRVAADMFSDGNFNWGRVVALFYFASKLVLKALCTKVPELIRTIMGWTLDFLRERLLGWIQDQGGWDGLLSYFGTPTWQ
# Excerpt: Recombinant human Bax ΔTM (Bax C terminal transmembrane truncated human Bax) was produced by using pHMTc vector downstream of maltose binding protein (MBP), separated by the TEV protease site. Overexpressed MBP-Bax was purified through a maltose-binding column (NEB) and subsequently cleaved by TEV protease (Invitrogen), followed by Ni-affinity purification to remove the protease and the His-tagged MBP. IFNγR2 cytoplamic domain (amino acids 263 337) was fused with thioredoxin (rTrx) to increase the recovery rate from bacterial lysates. The production and the purification of this fusion protein were performed by Protein X Laboratory (San Diego, Calif.). Recombinant Bax (25 ng) was loaded onto Sepharose G beads pre-equilibrated with anti-Bax antibody (Bax B9, Santa Cruz) or pre-immune IgG (control IgG) at 4° C. for 2 h. The excess Bax molecules were washed 3 times with buffer (50 mM phosphate buffer, pH 7.4). Recombinant IFNγR2 (263-337)-rTrx (25 ng) was added to the beads preloaded with Bax and anti-Bax or control IgG. Beads and IFNγR2263-337-rTrx were incubated at 4° C. for 2 h. After the incubation, beads were extensively washed with the loading buffer (50 mM phosphate buffer, pH 7.4). Beads were boiled in Laemmli buffer, and the supernatant was collected as a sample. Samples were analyzed by western blot using anti IFNγR2 antibody (C20, Santa Cruz) and Bax (N20, Santa Cruz).
# [3] = target: T4, Bax (Homo sapiens, UniProt Q07812); test: Staurosporine-induced Bax activation in HeLa cells (6A7 antibody immunostaining); assay type: cell-based; design: endogenous in cells; host or cells: HeLa; conditions: staurosporine 100 nM, 3 h
# T4 sequence (Q07812 whole entry): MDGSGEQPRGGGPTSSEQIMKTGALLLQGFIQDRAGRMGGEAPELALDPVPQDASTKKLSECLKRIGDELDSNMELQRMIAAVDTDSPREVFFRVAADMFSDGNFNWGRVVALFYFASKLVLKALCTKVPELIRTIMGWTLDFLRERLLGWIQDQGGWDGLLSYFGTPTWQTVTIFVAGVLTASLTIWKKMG
# Description: HeLa cells were transiently transfected with pEGFP-C2-IFNγR2 (wild type 1-295, or 296-337) using […]® (Qiagen, Valencia, Calif.) in accordance with the manufacturer's instructions. Four micograms of the plasmid were used to transfect cells cultured in 6-cm diameter dishes. After 24 h of transfection, the cells were treated with staurosporine (100 nM) for 3 h. Then, the cells were washed with phosphate buffer pH 7.4 (PBS), fixed using paraformaldehyde (1%), permeabilized with Triton X-100 (0.02%), blocked with goat serum, and the activation of Bax was analyzed by immunocytochemistry using monoclonal Bax 6A7 antibody (BDPharmingen) and ALEXA FLUOR® 568-labeled anti-mouse IgG secondary antibody (Invitrogen).
# [4] = target: T4, Bax; test: Apoptosis induced by Bax overexpression in HEK293 cells (Hoechst nuclear staining); assay type: cell-based; design: expressed in transfected cells; host or cells: HEK293; conditions: HEK293 cells co-transfected with pcDNA3-h Bax and pEGFP-C2-IFNγR2 construct, 24 h after transfection
# Description: (§1) Cells were cultured overnight in DMEM supplemented with 10% FBS. The transfections were performed using […]® (Qiagen, Valencia, Calif.) in accordance with the manufacturer's instructions. Transfection efficiency was analyzed by the expression of the EGFP-tagged proteins.
# (§2) Apoptosis was induced by transfecting the cells with pcDNA3-human Bax, or pcDNA3-human Bak, or pcDNA3-human Bim EL, or by treatment with etoposide (10 μM) or staurosporine (100 nM). To determine the induction of apoptosis by different apoptotic stresses, cells were stained with Hoechst 33258 dye, and the numbers of cells with apoptotic nuclei were counted using fluorescence microscopy. Three hundred cells were analyzed in triplicate samples. […] Caspase activity were measured by using a fluorogenic caspase 3 substrate II (Calbiochem), IFNγR2 constructs were cloned in pEGFP-C2 (IFNγR2wild type, IFNγR21-295 and IFNγR2296-337) vector.
# (§3) For Bax, Bak or Bim EL overexpression, cells were transfected with either 1 μg pcDNA3-human Bax, 1 μg pcDNA3-human Bak, or 1 μg pcDNA3 human Bim EL, and 4 μg of pEGFP plasmid encoding IFNγR2, and the apoptosis or caspase activity was determined 24 h after the transfection.
# [5] = test system: Caspase 3; test: Etoposide-induced Caspase 3 activation in IFNγR2 null cells; assay type: cell-based, human; conditions: 10 μM etoposide for 24 h, plasmid-mediated expression
# Description: as §2
# [6] = target: T1, human Bak; test: Apoptosis induced by Bak overexpression in HEK293 cells; assay type: cell-based; conditions: 24 h after transfection
# Description: as §1, §2, §3
# [7] = test system: HT1080 (IFNγR2 null mutant and JAK2 null mutant) cells; test: Etoposide-induced apoptosis in HT1080-derived IFNγR2 null and Jak2 null cells (Hoechst nuclear staining); assay type: cell-based, human; conditions: cells lacking IFNγR2 and Jak2, 10 μM etoposide for 24 h
# Description: HT1080 (wild type, IFNγR2 null mutant and JAK2 null mutant) cells were cultured in Dulbecco's Modified Eagle's Medium (DMEM) supplemented with 10% fetal bovine serum (FBS). HeLa, Human Embryonic Kidney (HEK) 293 and HEK293T cells were purchased from ATCC, and cultured in DMEM supplemented with 10% FBS. LNCap and PC3 cells were purchased from ATCC and cultured in DMEM F12 medium supplemented with 10% FBS. RWPE1 and RWPE2 were purchased from ATCC and cultured in keratinocytes-SFM plus supplements medium (Gibco). Primary mammary epithelial (4A100) cultures were derived from organoids isolated from discarded mammary tissue acquired from patients undergoing reduction mammoplasty surgery. Anonymized specimens were acquired from patients who had given written consent, through the Tissue Procurement and Histology Core Facility of the Case Comprehensive Cancer Center (Case), under a Case CCC IRB approved protocol. Primary epithelial cultures were grown in M87A+X medium. Human HME1 cells (Clontech) were grown in medium 171 with mammary epithelial growth supplement (Cascade Biologics) and penicillin-streptomycin.42 Human breast cancer cell line MDA-MD468 was cultured in RPMI, 5% FBS, supplemented with L-glutamine, penicillin-streptomycin and fungizone (Gibco). […]
# Cells were cultured overnight in DMEM supplemented with 10% FBS. […] Transfection efficiency was analyzed by the expression of the EGFP-tagged proteins.
# as §2
# [8] = test system: human Bim EL; test: Apoptosis induced by Bim overexpression in HEK293T cells; assay type: cell-based; conditions: 24 h after transfection
# Description: as §1, §2, §3
Suppression of Bax in yeast (rescue of yeast growth from Bax expression) [1],Inhibition of STS-induced Bax activation (6A7 Ab-positive cells in GFP-positive cells) [3],Molecule,Direct interaction with BaxΔTM [2],Inhibition of apoptosis induced by Bax overexpression [4],Inhibition of etoposide-induced Caspase 3 activation [5],Rescue from apoptosis induced by Bak overexpression [6],Inhibition of etoposide-induced apoptosis [7],Inhibition of apoptosis induced by Bim overexpression [8]
Bax suppressor,–,"IFNγR2263-337: cytoplasmic domain of IFNγR2 (amino acids 263-337); recombinant form fused with thioredoxin (rTrx) (protein, left off: large carriers) AGACFFLVLKYRGLIKYWFHTPPSIPLQIEEYLKDPTQPILEALDKDSSPKDDVWDSVSIISFPEKEQEDVLQTL",confirmed,–,–,–,–,–
–,inhibited STS-induced Bax activation,"IFNγR2wild type: interferon gamma receptor beta chain, full length, expressed from pEGFP-C2 plasmid as EGFP fusion (protein, left off: large carriers, interferon gamma receptor beta chain, full length, expressed from pEGFP-C2 plasmid as EGFP fusion) APPDPLSQLPAPQHPKIRLYNAEQVLSWEPVALSNSTRPVVYQVQFKYTDSKWFTADIMSIGVNCTQITATECDFTAASPSAGFPMDFNVTLRLRAELGALHSAWVTMPWFQHYRNVTVGPPENIEVTPGEGSLIIRFSSPFDIADTSTAFFCYYVHYWEKGGIQQVKGPFRSNSISLDNLKPSRVYCLQVQAQLLWNKSNIFRVGHLSNISCYETMADASTELQQVILISVGTFSLLSVLAGACFFLVLKYRGLIKYWFHTPPSIPLQIEEYLKDPTQPILEALDKDSSPKDDVWDSVSIISFPEKEQEDVLQTL",–,able to inhibit apoptosis induced by Bax overexpression,inhibited etoposide-induced Caspase 3 activation,could not rescue cells from apoptosis induced by Bak overexpression,able to inhibit etoposide-induced apoptosis,able to inhibit apoptosis induced by Bim overexpression

# — patent US9458427B2, “IFNγR2 compositions and methods of inhibiting neuronal cell death” (Case Western Reserve University, priority 2009, dated 2016)
